# Test results from the nanobody polyreactivity screen of Harvey et al. (2022).
# Test: yeast display, Sf9 membrane polyspecificity reagent, FACS + sequencing; frameworks hold sequencing errors
# Outline: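 Polyreactivity labels are assigned by the sorting gate from which each nanobody was recovered. The gates were low and high (top ~1%), set on anti-HA fluorescence for expression and streptavidin fluorescence for reagent binding. Before sorting, galactose-induced (36–48 hours) yeast display cells were stained for 1 hour at 4 °C with 10% biotinylated, detergent-solubilized Sf9 membrane reagent.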
row,Sequence,polyreactivity (PSR sort gate)
1,QVQLVESGGGLVQAGGSLRLSCAASGIIFVYYAMGWYRQAPGKERELVAAISRSGGRTYYADSVKGRFTISRDNAKNTVYLQMNSLKPEDTAVYYCAAEVYKRYRYDYWGQGTQVTVSS,high polyreactivity
2,QVQLVESGGGLVQAGGSLRLSCAASGIIFVYYGKGWYRQAPGKERELVAAISWSGDDTYYADSVKGRFTISRDNAKNTVYLQMNSLKPEDTAVYYCAARPGYVHIDFDYWGQGSQVTVSS,low polyreactivity
3,QVQLVESGGGLVQAGGSLRLSCAASGIIFVYYVMGWYRQAPGKERELVASIDGSGGSTNYADSVKGRFTISRDNAKYTVYLQMNSLKPEDTAVYYCNADNILYWSTLDYWGQGTQVTVSS,low polyreactivity
4,QVQLVESGGGLVQAGGSLRLSCAASGIIFWDYAMGWYRQAPGKEREFVAAINTSGGTTTYADSVKGRFTISRDNAKNTVYLQMNSLKPEDTAVYNCAADPWGYYSYAYYYWGQGTQVTVSS,low polyreactivity
5,QVQLVESGGGLVQAGGSLRLSCAASGIIFWHYAMGRYIQAPGKERELVADISRRGGSTYYADSVKGRFTISRDNAKNTVYLQMNSLKPVDTAVYYCAARYHPGGYDSWGQGTQVTVSS,low polyreactivity
6,QVQLVESGGGLVQAGGSLRLSCAASGIIFWLYAMGWYRQAPGKERELVAAINWSGSTTYYADSVKGRFTISRDNAKNTVYLQMNSLKPEDTAVYYCAASRVRAYYYTSSLRRYYYWGQGTQVTVSS,high polyreactivity
7,QVQLVESGGGLVQAGGSLRLSCAASGIIFWLYTMGWYRQAPGKERELVAAITSGGSTYYADSVKGRFTISRDNAKNTVYIQMNSLKPEDTAVYYCAAVPRYRRGKYDYWGQGTQVTVSS,high polyreactivity
8,QVQLVESGGGLVQAGGSLRLSCAASGIIFWRYAMGWYRQAPGKERELVASISWSGGSTSYADSVKGRFTISRDNAKNTVYLQMNSLKPEDTSVYYCAAVYYYRRRYYYWGQGTQVTVSS,high polyreactivity
9,QVQLVESGGGLVQAGGSLRLSCAASGIIFWSYTMGWYRQAPGKEREFVASLRKSGGSTYYADSVKGRFTISRDNSKNTVYLQMNSLKPEDTAVYYCAAVYRRYLGGGYDYWGQGTQVTVSS,high polyreactivity
10,QVQLVESGGGLVQAGGSLRLSCAASGIIFWWYAMGGDRQAPGKERELVAAISGTGGSTYYADSVKGRFTISRDNAKNTVYLQMNTLKPEDTAVSYCPARGTSSSYYDYDYWGQGTQVTVSS,low polyreactivity
11,QVQLVESGGGLVQAGGSLRLSCAASGIIFWWYDMGWYRQAPGTERELVAAISTGSRTNYADSVKGRFTISRDNAKNTVYLQMNSLKPEDTAVYYCAAEWVGFSGYYGSGYEMDYWGQGTQVTVSS,low polyreactivity
12,QVQLVESGGGLVQAGGSLRLSCAASGIIFWYNAMGWYRQAPGKERELVAAITYSGGSTYYADSVKGRFTISRDNAKNTVYLQMNSLKPEDTAVYYCAADGYSRYASGGYEYWGQGTQVTVSS,low polyreactivity
13,QVQLVESGGGLVQAGGSLRLSCAASGIIFWYYAMGWYRQAPGKERELVAAISQSGGSTYYADSVKGRFTISRDNAKNTVYLQMNSMKPEDTAVDYCAAKPFYWSLEYDYRGQGTQVTVSS,high polyreactivity
14,QVQLVESGGGLVQAGGSLRLSCAASGIIFWYYAMGWYRQAPGKERELVAAISSGGGTNYADSVKGRFTISRDNAKNTVYLQMNSLKPEDTAVYYCNADDNPVWEYDYWGQGTQVTVSS,low polyreactivity
15,QVQLVESGGGLVQAGGSLRLSCAASGIIFYAYAMGWYRQAPGKERELVAAITFSAVSTYYADSVKGRFTISRDNAKNTVYLQMNSLKPEDTAVYYCAVDREWPGYYYAISKMYYWGQGTQVTVSS,low polyreactivity
16,QVQLVESGGGLVQAGGSLRLSCAASGIIFYDYAMGWYRQAPGKERELVAAISRSGGSTYYADSVKGRFTISRDNAKNTVYLQMNSLKPEDTAVYYCNADEVVWGYNYWGQGTQVTVSS,low polyreactivity
17,QVQLVESGGGLVQAGGSLRLSCAASGIIFYDYAMGWYRQAPGKERELVAAISSSGGRTYYADSVKGRFTISRDNAKNTVYLQMNSLNPEDTAFYYCATVSSIYRVRSTSIRYNYWGQGTQVTVSS,high polyreactivity
18,QVQLVESGGGLVQAGGSLRLSCAASGIIFYENAMGWYRQAPGKERELVADITQSGGSTYYADSVKGRFTISRDNAKNTVYLQMNSLKPEDTAVYYCARDGDLWYYKGYGTLFDYWGQGTQVTVSS,low polyreactivity
19,QVQLVESGGGLVQAGGSLRLSCAASGIIFYFYAMGWYRQAPGKERELVAAISRGGSTKYADSVKGRFTISRDNAKNTVYLQMNSLKPEDTAVYYCAATRRRPSEYYYWGPGTQVTVSS,high polyreactivity
20,QVQLVESGGGLVQAGGSLRLSCAASGIIFYFYAMGWYRQAPGKERELVAAITSGGSTNYADSVKGRFTISRDNAKNTVYLQMNSLKPEDTAVYYCAADRDYYFFRYDYWGQGTQVTVSS,low polyreactivity
21,QVQLVESGGGLVQAGGSLRLSCAASGIIFYGYAMGWYRQAPAKERELVAAITYSGGSTYYADSVKGRFTISRDNAKNTVYLQMNSLKPEDTAVYYCDAYDAYSPYLALYDYWVQGTQVTVSS,low polyreactivity
22,QVQLVESGGGLVQAGGSLRLSCAASGIIFYGYAMGWYRQAPGKERELVATISTGGRTNYADSVKGRFTISRDNAKNTVYLQMNSLKPEDTAVYYCAARSFWTYRSGGPSDYYYWGQGTQVTVSS,high polyreactivity

row,Sequence,polyreactivity (PSR sort gate)
1,QVQLVESGGGLVQAGGSLRLSCAASGIIFYGYVMGWYRQAPGKERELVAAISKSGGSTYYADSVKGRFTISRDIAKNTVYLQMNSLIPEDTAVYYCAAERKSFYRYNYWGQGTQVSVSS,high polyreactivity
2,QVQLVESGGGLVQAGGSLRLSCAASGIIFYGYVMGWYRQAPGKERELVAAISKSGGSTYYADSVKGRFTISRDNAKNTVYLQMNSLKPEETAVYYCAAERKSFYRYNYWGQGTQVTVSS,high polyreactivity
3,QVQLVESGGGLVQAGGSLRLSCAASGIIFYKYAMGWYRQAPGKERELVAAINWSGGSTYYADSVKGRFTISRDNAKNTVYLQMNSLKPEDTAVYYCAADRTDFEYYYWGQGTQVTVSS,low polyreactivity
4,QVQLVESGGGLVQAGGSLRLSCAASGIIFYKYAMGWYRQAPGKERELVAAISYSGTSTYYADSVKGRFTISRDNAKNTVYLQINSLKPEDTAVYYCAAVTYVPRSTNGISLYDYWGQGTQVTVSS,high polyreactivity
5,QVQLVESGGGLVQAGGSLRLSCAASGIIFYKYAMGWYRQAPGKERELVAAITGRGGSTYYADSVKGRFTISRDNAKNTVYLRMNSLKPEDTAVYFCAASQRSGHPSYDYWGQGTQVTVSS,high polyreactivity
6,QVQLVESGGGLVQAGGSLRLSCAASGIIFYLYAMGWYRQAPGKERELVAAISRRGVSTYYADSVKGRFTISRDNAKNTVYLQMNSLKPEDTAVYYCAAAGFGYTGEEYWGQGTQVTVSS,high polyreactivity
7,QVQLVESGGGLVQAGGSLRLSCAASGIIFYLYTMGWYRQAPGKERELVAAISKSGARTYYADSVKGRFTISRDNAKNTVYLQMNSLKPEDTAVYYCAADVSVSGYYYWGQGTQVTVSS,high polyreactivity
8,QVQLVESGGGLVQAGGSLRLSCAASGIIFYLYVMGWYRQAPGKERELVAVISYSGDDTYYADSVKVRFTISRDNAKNTVYLQMNSLKPEDTAVYYCAADSIGYGFDYWGQGTQVTVSS,low polyreactivity
9,QVQLVESGGGLVQAGGSLRLSCAASGIIFYPYTMGWYRQAPGKERELVAAINSGGSTYYADSVKGRFTISRDNAKNTVYLQMNSLKPEDTAVYYCAAEANRYSSGYDYWGQGTQVTVTS,low polyreactivity
10,QVQLVESGGGLVQAGGSLRLSCAASGIIFYRNAMGWYRQAPGKERELVAAISSRGGNTYYADSVKGRFTISRDNEKNTVYLQMNSLKPEDTAVYYCARDSYSLSRTYDSWGQGTQVTVSS,high polyreactivity
11,QVQLVESGGGLVQAGGSLRLSCAASGIIFYRNTMGWYRQAPGKERELVAAITSGGTTYADSVKGRFTISRDNAKNTVYLQMNSLKPEDTAVYYCATDYWYRGFEYEYWGQGTQVTVSS,high polyreactivity
12,QVQLVESGGGLVQAGGSLRLSCAASGIIFYRNTMGWYRQAPGKEWELVAAIRRGGNTYYADSVKGRFTISRDNAKNTVYLQMNSLKPEDTAVYYCAASAGPRASYYYWGQGTQVTVSS,high polyreactivity
13,QVQLVESGGGLVQAGGSLRLSCAASGIIFYRSVMGWYRQAPGKERELVAAITSGGSTNYADSVKGRFTISRDNAKNTVYLQMNSLKPEDTAVYYCAAVPRYRRWKYDYWGQGTQVTVSS,high polyreactivity
14,QVQLVESGGGLVQAGGSLRLSCAASGIIFYRYAMGCYRQAPGKEREFVAAISWSGGSTTYADSVKGRFTISRDNAKNTVYLQMNSLKPEDTAVYYCNADRKYWSLWGPAYDYWGQGTQVTVSS,high polyreactivity
15,QVQLVESGGGLVQAGGSLRLSCAASGIIFYRYAMGWYRQAPGKERELVARITYNGGRTYYADSVKGRFTISRDNAKKTVYLQMNSLKPEDSAVYYCAARGHGGYYYWGQGTQVTVSS,high polyreactivity
16,QVQLVESGGGLVQAGGSLRLSCAASGIIFYSYVMGWYRQAPGKERELVAVISRSGGRTYYADSVKGRFTISRDNAKNTVYLQMISLKPEDTAVYYWAAALGVALNDYWGQGTQVTVSS,high polyreactivity
17,QVQLVESGGGLVQAGGSLRLSCAASGIIFYTYAMGWYRQAPGKEREFVAGIRWSGSSTYYADSVKGRFTISRDNAKNTVYLQMNSLKPEDTAVYYCATGQPYGPLYSLGYGYWGQGTQVTVSS,high polyreactivity
18,QVQLVESGGGLVQAGGSLRLSCAASGIIFYVYAMGWYRQAPGKERELVAAISSSGGSTNYADSVKGRFTISRDNAKNTVYLQMNSLKPEDTAVYFCAAKWRTRGHTSARGYWGQGTQVTVSS,high polyreactivity
19,QVQLVESGGGLVQAGGSLRLSCAASGIIFYWYAMGWYRQAPGKERELVAAINSGGRTNYADSVKGRFTISRDNAKNTVYLQMNSLKPEDTAVYYCAARANPYVLKYYYWGQGTQVTVSS,high polyreactivity
20,QVQLVESGGGLVQAGGSLRLSCAASGIIFYYNAMGWYREAPGKEREFVASISSRGGSTYYADSVKGRFTISRDNSKNTVYLQMNSVKPEDTAVYYCAAAFDWRRQRYNYWGQGTQVTVTS,high polyreactivity
21,QVQLVESGGGLVQAGGSLRLSCAASGIIFYYNGMGWYRQAPGKERELVAAISGDGSTNYADSVKGRFTISRDNAKNTVYLQMNSLKPEDTAVYYCNADDIFRPRDDLYDYWGQGTQVTVSS,low polyreactivity
